What is called Kd is the concentration at which binding is half-saturated. In general, koff refers to the rate constant with which the complex falls apart. Read a high koff as fast dissociation. As usually defined, the kon is a measure of how fast the partners come together.

The record followed here is article PMC5694352.

What all share (assay): BLI
In assay [1] the target is GlcNAc-IgG3 Fc (human IgG3 Fc with a single GlcNAc at N297) (human).
The target of assay [2] is High mannose (Man8-Man12) glycoform of human IgG3 Fc (human).
Assay [3] deals with Man5-IgG3 Fc (human IgG3 Fc with the GlcNAc2Man5 glycoform) (human).

In assay [1], “Fcγ receptor IIIA, high affinity polymorph (V158)” came in with a Kd of 0.506 µM, a koff of 0.0858 s⁻¹ and a kon of 170000 M⁻¹ s⁻¹. In assay [2], this substance had a Kd of 0.0414 µM, a koff of 0.0065 s⁻¹ and a kon of 160000 M⁻¹ s⁻¹. In assay [3], this substance yielded a Kd of 0.0465 µM.
